Laboratory results reported in the supplement of paper PMC7125110.
± gives the standard error. Variants at the floor of the assay were thinned out.

B1: glmS ribozyme (parent)
chain: AUAAAAGCGCCAGAACUACAGAAAUGUAGUUGACGAGGAGGAGGUUUAUCGAAUUUUCGGCGGAUGCCUCCAAA

Variants of: B1
Assay: self-cleavage kobs at 10000 uM GlcN6P; higher = faster cleavage; RNA array
Details: with glucosamine-6-phosphate
How it was run: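 Using a hybridised Cy3 probe at 37 °C, barcoded ribozyme variants transcribed in situ by E. coli RNA polymerase on sequenced MiSeq chips were monitored across tiles imaged over ~14 h. The flow contained glucosamine-6-phosphate from 40 μM to 10 mM in HEPES/KCl/Mg(OAc)2 buffer. Signals were normalised to baseline and to non-cleaving reference variants before per-tile medians were fit to one- or two-exponential decays to yield kobs. Weighted Michaelis–Menten fits across concentrations gave kcat and KM.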

Variant	self-cleavage kobs at 10000 uM GlcN6P
A12U U46G A48G	9.42e-05 ± 2.1e-05 s⁻¹
G7U G51A U56G	< 1e-05 s⁻¹
G9U G41A C50U G60C	< 1e-05 s⁻¹
G29C A64G C70U	3.15e-05 ± 1.4e-05 s⁻¹
A15U A39G U57C	6.65e-05 ± 1.8e-05 s⁻¹
A15U C50U C61G A64G	< 1e-05 s⁻¹
G29U G35C G43C G59A	< 1e-05 s⁻¹
A14G U31G C67U	0.00162 ± 0.00041 s⁻¹
A14C U55G C67G	0.000215 ± 3.8e-05 s⁻¹
G21U A52G	0.00145 ± 0.0003 s⁻¹
G13A A42G	0.000882 ± 0.00023 s⁻¹
G7A C34U U57A	< 1e-05 s⁻¹
A12C A39U A48C	4.14e-05 ± 1e-05 s⁻¹
G13C U55G C58G	4.29e-05 ± 1.4e-05 s⁻¹
C8G C10U U54G	< 1e-05 s⁻¹
C8U U31C A52U	< 1e-05 s⁻¹
G13U U46C	3.18e-05 ± 1.1e-05 s⁻¹
C8G C61G C70A	< 1e-05 s⁻¹
U30A C67G C71G	< 1e-05 s⁻¹
C11U A12G A14U	0.000156 ± 3.3e-05 s⁻¹
G29U A53C G60A	< 1e-05 s⁻¹

Variant	self-cleavage kobs at 10000 uM GlcN6P
C8U G37C G43A C58A	< 1e-05 s⁻¹
C11G C50G C68G C71U	8.16e-05 ± 1.7e-05 s⁻¹
C10G G32U G44A U54A C68A	< 1e-05 s⁻¹
C16U G62C	< 1e-05 s⁻¹
A12C G29U U69G	3.54e-05 ± 1.6e-05 s⁻¹
G29C U31C G66A	0.000105 ± 2.5e-05 s⁻¹
C16U C34U G44A	< 1e-05 s⁻¹
A12U C16A G35A A42C G59U C71U	< 1e-05 s⁻¹
C8U G32C A33C G40C	< 1e-05 s⁻¹
A14U A36G A64G C70G	< 1e-05 s⁻¹
C10U U55C G62U	< 1e-05 s⁻¹
U30C U54G C67G	2.88e-05 ± 1.3e-05 s⁻¹
C8A G35C A53U	< 1e-05 s⁻¹
A12U A14G U57A	0.000643 ± 0.00011 s⁻¹
A12G G63C C70U	< 1e-05 s⁻¹
A15C G41U G66A	0.000194 ± 4.9e-05 s⁻¹
A14U A48C U55A	3.3e-05 ± 1.5e-05 s⁻¹
G9A A15U A39G A52U G60U	< 1e-05 s⁻¹
C11U G38U C50A	< 1e-05 s⁻¹
G7U G32U G59C G62U U65G	< 1e-05 s⁻¹
A6U U45G U46C	4.58e-05 ± 1.7e-05 s⁻¹

Variant	self-cleavage kobs at 10000 uM GlcN6P
C8G G9A G35A A36U	< 1e-05 s⁻¹
U30C G38A G63C U69C	< 1e-05 s⁻¹
A14U A36U C50U C70A	7.4e-05 ± 2.1e-05 s⁻¹
A12G A36C C67G	< 1e-05 s⁻¹
C10U G35U A42G U56G	< 1e-05 s⁻¹
G9U C34G C70G	< 1e-05 s⁻¹
A14C G59C G62C	< 1e-05 s⁻¹
C11A A14G C34U G66C	< 1e-05 s⁻¹
C8A C34U A64U C68U	< 1e-05 s⁻¹
A14C A39U U47C C70U	0.00047 ± 6.5e-05 s⁻¹
A15C C16G G37C C58A G63C	< 1e-05 s⁻¹
C11G G13U G37C	< 1e-05 s⁻¹
A12G A39C G66U	6.62e-05 ± 1.8e-05 s⁻¹
G9A A12U C70G	< 1e-05 s⁻¹
G29C G44A C58G	< 1e-05 s⁻¹
C10U A12G G13U A14C G41A	< 1e-05 s⁻¹
G9C U46A C58U	< 1e-05 s⁻¹
G13U C16U A53U G62U	< 1e-05 s⁻¹
G13U G38C G62A	< 1e-05 s⁻¹
U30C G66A C71U	0.000123 ± 2.3e-05 s⁻¹
C10G A14G	3.42e-05 ± 7.2e-06 s⁻¹

Variant	self-cleavage kobs at 10000 uM GlcN6P
C8U A12U A42C C70U	< 1e-05 s⁻¹
A6U G51C G63C U69G	< 1e-05 s⁻¹
C11U A15G U31C C67G	6.25e-05 ± 1.8e-05 s⁻¹
A14U G40A U54A	0.000245 ± 8.4e-05 s⁻¹
G13A G38U	< 1e-05 s⁻¹
C16A U31C G41C C68A	< 1e-05 s⁻¹
C11G G29U C34A A36U G37U G44C C68U	< 1e-05 s⁻¹
C16A G29U C58A	0.000415 ± 0.00011 s⁻¹
C8A U45A A52G C61G C67U	< 1e-05 s⁻¹
C11A C16G C58U C68A	0.000263 ± 8.9e-05 s⁻¹
G7A C16G A52U C61A	< 1e-05 s⁻¹
C10G U57G C67A	< 1e-05 s⁻¹
C11A U55A U56C	2.5e-05 ± 1.1e-05 s⁻¹
G9A A15U G29U C68G	< 1e-05 s⁻¹
A14G A15G U47C U55A C70G	0.000483 ± 0.00014 s⁻¹
G13U A42G C50U	< 1e-05 s⁻¹
G7A U55G C67U C70G	4.07e-05 ± 1.8e-05 s⁻¹
G9U A33U G40A C58U	< 1e-05 s⁻¹
C11A U30A C70G	5.91e-05 ± 1.5e-05 s⁻¹
A12U A14G G41A A42G	0.000918 ± 0.0002 s⁻¹
A12C G32A G38A	< 1e-05 s⁻¹
